Laboratory results taken from patent US20050153395A1, “Unique integrin binding site in connective tissue growth factor (CTGF)” (CHILDREN'S HOSPITAL INC., priority 2003, published 2005).
“Also recorded” adds a separate entry of the source.

What was measured:
neonatal mice = assay: Fibrogenic response after subcutaneous administration to neonatal mice; type: in vivo; conditions: administered subcutaneously to neonatal mice
Method: CTGF is also known to induce transdifferentiaion of corneal epithelial cells into α […] muscle actin (αSMA)-expressing myofibroblasts. For example, cells are cultured for 24 hours in the presence and absence of CTGF peptide or CTGF modulator. Subsequently, the treated cells are stained for αSMA. CTGF activity also may be analyzed by measuring for a classic fibrogenic response as described in Leask et al., Mol. Pathol; 54: 180-183, 2001. For example, CTGF peptide or CTGF modulator are administered into the subcutaneous region of the neck of 3 day old mice for 7 consecutive days. Fourteen days after the last injection, the mice are sacrificed and the injected areas are stained for αSMA.
(§1) Adhesion is a well-accepted and reproducible measure of CTGF activity. […] Using 4 liters of CHO conditioned medium approximately 0.5 mg, 1 mg, and 0.1 mg, respectively, of 38 kDa, 16-20 kDa, and 10 kDa CTGF (CTGF1-4, CTGF3-4 and CTGF4, respectively) were produced.

PSCs = assay: PSC chemotaxis (migration) assay in culture insert; type: cell-based, rat; conditions: substance in lower chamber
Method: To examine whether CTGF plays a role in PSC migration, a chemotaxis assay was carried out in which the migratory behavior of PSCs in the upper chamber of a culture insert was assessed following addition of CTGF to the lower chamber. […] PSC migration was also promoted by FN, PDGF or TGF-β1.

[1] = test system: pancreatic stellate cells (PSC); assay: PSC adhesion assay on coated wells; type: cell-based, rat; conditions: coated at 2 μg/ml
Source text: Rat PSCs were isolated by a modification of the method described by Phillips et al., Gut; 52:677-82, 2003. Briefly, pancreatic tissue was digested in situ with 0.03% collagenase P (Roche, Indianapolis, Ind.) in HBSS by perfusion through the thoracic aorta. This protocol was approved by the Institutional Animal Care and Use Committee of Children's Research Institute, Columbus, Ohio. The tissue was pooled, minced with scissors, and then digested with 0.05% collagenase P, 0.02% protease XIV (Sigma, St. Louis), and DNase I (Roche, Indianapolis, Ind.) in HBSS. The resulting cell suspension was centrifuged in a 12% Optiprep gradient at 1400 g for 14 minutes. Stellate cells separated into a hazy band just above the interface of a the gradient and the aqueous buffer. This band was harvested, and the cells washed and resuspended in DMEM supplemented with 25 mM Hepes buffer, 10% FBS, and 100 U/ml penicillin in, 100 μg/ml streptomycin. The, cells were maintained at 37° C. in a humidified atmosphere of 5% CO2/95% air.
The ability of activated PSC to adhere to non-tissue culture plastic microtiter wells coated with recombinant CTGF1-4, CTGF3-4 or CTGF4 was investigated. The solid phase binding assay was carried out as described in Example 2. […] To assess the possibility that CTGF-mediated PSC adhesion involved cell surface integrins, the effect of divalent cations on cell adhesion was examined, as described in Example 2. […]
Because CTGF is a heparin-binding protein, this property was further investigated.
To identify the peptides that bind to PSCs, cell adhesion assays were carried out as described in Example 3.
To further investigate the peptide binding, P2 or P5 (10 μM) or vehicle buffer alone (no add) were added to PSC cell suspensions for 30 minutes at room temperature.

integrin α5β1 = integrin α5β1 (Homo sapiens, UniProt P05556+P08648); assay: Solid phase ELISA of integrin α5β1 binding; conditions: coated at 2 μg/ml; 1 μg/ml integrin
Sequence of integrin α5β1 (P08648 42-894 limits assumed): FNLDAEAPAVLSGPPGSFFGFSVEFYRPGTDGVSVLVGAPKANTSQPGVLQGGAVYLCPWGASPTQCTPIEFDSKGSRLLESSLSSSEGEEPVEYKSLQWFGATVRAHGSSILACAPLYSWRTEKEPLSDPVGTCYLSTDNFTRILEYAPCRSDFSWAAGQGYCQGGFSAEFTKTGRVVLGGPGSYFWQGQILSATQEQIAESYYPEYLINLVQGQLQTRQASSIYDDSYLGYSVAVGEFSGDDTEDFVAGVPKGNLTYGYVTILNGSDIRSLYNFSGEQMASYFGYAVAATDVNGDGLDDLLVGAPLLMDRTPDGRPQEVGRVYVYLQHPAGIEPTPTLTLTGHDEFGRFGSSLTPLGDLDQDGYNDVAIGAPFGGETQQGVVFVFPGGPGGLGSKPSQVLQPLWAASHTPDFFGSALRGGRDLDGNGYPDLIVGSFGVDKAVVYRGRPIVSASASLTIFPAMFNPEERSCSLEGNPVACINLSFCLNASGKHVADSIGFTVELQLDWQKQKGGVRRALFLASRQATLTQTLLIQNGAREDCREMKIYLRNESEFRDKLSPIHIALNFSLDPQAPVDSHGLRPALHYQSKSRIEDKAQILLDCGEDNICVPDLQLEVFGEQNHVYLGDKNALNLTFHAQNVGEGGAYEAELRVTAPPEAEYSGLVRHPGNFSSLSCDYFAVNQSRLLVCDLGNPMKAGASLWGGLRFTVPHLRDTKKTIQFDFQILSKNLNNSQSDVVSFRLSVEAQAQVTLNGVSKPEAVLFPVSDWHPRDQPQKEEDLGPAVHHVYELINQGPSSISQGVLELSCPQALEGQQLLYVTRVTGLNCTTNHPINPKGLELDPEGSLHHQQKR
Sequence of integrin α5β1 (P08648 895-1049 partner limits assumed): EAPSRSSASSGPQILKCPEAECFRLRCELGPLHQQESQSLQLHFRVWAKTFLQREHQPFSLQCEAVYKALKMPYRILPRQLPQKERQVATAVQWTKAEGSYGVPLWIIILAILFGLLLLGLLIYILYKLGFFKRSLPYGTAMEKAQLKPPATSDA
Sequence of integrin α5β1 (P05556 21-798): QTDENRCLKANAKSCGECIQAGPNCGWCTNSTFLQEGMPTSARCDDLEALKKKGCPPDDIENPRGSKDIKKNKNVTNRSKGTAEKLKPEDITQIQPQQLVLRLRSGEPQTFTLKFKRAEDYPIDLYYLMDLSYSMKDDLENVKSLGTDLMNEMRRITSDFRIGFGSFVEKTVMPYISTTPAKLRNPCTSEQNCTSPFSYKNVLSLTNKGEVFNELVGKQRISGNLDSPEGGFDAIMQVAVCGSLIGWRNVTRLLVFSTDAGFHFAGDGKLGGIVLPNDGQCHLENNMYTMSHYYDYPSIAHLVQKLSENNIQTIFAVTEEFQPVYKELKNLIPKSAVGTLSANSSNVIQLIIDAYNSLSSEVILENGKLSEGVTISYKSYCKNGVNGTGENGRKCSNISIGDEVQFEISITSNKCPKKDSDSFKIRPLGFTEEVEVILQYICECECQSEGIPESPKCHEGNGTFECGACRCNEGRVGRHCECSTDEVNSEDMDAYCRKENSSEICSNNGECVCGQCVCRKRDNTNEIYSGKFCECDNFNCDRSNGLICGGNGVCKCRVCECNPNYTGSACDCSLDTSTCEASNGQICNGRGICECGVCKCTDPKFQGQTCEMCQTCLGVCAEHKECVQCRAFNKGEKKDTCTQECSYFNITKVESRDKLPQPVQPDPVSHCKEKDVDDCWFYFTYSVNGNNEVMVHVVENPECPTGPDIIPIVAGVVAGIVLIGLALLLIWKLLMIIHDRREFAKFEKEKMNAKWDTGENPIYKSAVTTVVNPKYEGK
Method: In a second approach, a solid phase binding assay was used in which CTGF1-4 or FN were individually coated onto microtiter wells that were subsequently incubated with purified integrin α5β1. The presence of immobilized integrin α5β1 was detected by ELISA using an anti-integrin α5β1 antibody similar to the methods described in Example 3 above. In addition, CTGF1-4 bound to integrin α5β1 in a dose-dependent manner, with maximal binding at 2 μg/ml CTGF. This level of CTGF1-4 (2 μg/ml) binding was the same as that elicited by 2 μg/ml FN, a well known ligand of integrin α5β1. In a similar experiment, 2 μg/ml of CTGF1-4;CTGF3-4 or CTGF4 were individually precoated onto microtiter wells. Using the solid-phase assay, integrin α5β1 bound to CTGF1-4, CTGF3-4 or CTGF4 See FIG. 5 (Panel B).
To directly analyze whether α5β1 integrin binds to CTGF4, microtiter wells coated with CTGF4 (2 μg/ml) or FN (4 μg/ml) were used in an ELISA assay to detect integrin binding, as described in Example 3. For these assays, 1 μg/ml integrin α5β1, alone or in the presence of 35 μM of P2peptide (CTGF[257-272]) and 35 μM of P5 peptide (CTGF [285-291]), were added to the precoated plates. […] The binding between CTGF4 and integrin α5 β1 was blocked by peptide P5 (CTGF [285-291]) or peptide P2 (CTGF[257-272]). […]

integrin αvβ3 = integrin αvβ3 (Homo sapiens, UniProt P05106+P06756); assay: Solid phase ELISA of integrin αvβ3 binding; conditions: coated at different concentrations
Sequence of integrin αvβ3 (P06756 31-889 limits assumed): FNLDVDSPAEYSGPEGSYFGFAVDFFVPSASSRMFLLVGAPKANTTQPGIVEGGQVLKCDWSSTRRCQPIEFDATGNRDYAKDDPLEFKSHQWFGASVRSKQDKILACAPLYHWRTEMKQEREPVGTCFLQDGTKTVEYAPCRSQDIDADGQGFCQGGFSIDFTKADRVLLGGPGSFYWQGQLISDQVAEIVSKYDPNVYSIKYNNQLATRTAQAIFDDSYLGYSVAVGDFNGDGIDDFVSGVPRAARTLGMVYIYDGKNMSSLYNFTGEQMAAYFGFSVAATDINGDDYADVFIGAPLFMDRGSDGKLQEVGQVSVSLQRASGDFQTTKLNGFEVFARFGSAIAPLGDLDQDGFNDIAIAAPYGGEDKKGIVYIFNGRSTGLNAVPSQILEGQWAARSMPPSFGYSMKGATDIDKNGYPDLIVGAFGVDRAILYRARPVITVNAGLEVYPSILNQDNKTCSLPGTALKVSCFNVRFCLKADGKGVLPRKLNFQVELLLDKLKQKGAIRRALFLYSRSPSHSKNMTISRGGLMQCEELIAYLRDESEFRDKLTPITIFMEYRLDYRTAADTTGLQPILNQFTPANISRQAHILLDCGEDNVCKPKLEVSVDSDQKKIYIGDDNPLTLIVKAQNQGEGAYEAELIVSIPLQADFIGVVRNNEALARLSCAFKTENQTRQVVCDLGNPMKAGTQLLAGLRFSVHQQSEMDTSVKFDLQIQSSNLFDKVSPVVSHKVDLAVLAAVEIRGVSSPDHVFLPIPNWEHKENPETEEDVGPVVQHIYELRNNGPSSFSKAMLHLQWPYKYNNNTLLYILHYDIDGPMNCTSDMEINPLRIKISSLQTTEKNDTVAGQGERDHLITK
Sequence of integrin αvβ3 (P06756 891-1048 partner limits assumed): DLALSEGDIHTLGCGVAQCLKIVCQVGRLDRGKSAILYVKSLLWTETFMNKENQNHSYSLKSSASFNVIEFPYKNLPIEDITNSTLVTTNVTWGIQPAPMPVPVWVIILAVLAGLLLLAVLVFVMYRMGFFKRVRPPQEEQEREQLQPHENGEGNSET
Sequence of integrin αvβ3 (P05106 27-788): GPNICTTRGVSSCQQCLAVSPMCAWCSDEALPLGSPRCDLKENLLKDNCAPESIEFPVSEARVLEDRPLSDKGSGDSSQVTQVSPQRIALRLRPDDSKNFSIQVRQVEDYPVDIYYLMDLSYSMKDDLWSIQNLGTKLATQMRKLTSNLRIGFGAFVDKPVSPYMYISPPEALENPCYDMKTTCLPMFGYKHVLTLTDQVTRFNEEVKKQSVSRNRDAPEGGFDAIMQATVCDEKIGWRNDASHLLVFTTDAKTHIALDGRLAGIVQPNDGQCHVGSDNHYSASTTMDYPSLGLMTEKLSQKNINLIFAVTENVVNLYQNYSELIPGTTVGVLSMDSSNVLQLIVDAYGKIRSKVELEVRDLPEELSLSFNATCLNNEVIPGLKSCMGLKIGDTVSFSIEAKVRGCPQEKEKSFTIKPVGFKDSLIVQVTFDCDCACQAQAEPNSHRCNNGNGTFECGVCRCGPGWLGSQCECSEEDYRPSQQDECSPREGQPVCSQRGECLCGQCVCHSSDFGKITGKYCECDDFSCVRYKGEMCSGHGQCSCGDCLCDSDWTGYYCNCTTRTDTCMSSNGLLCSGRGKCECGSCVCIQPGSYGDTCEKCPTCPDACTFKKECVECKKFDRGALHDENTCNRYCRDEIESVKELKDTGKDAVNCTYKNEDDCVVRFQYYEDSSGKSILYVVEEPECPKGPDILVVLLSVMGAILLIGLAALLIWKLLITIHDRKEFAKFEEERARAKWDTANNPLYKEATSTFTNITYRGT
Method: Solid phase binding studies were also performed to investigate the binding of CTGF isoforms and αvβ3. Each CTGF isoform or vitronectin was individually coated onto microtiter wells at different concentrations, and the subsequent binding of αvβ3 was detected by ELISA using an anti-human αvβ3 monoclonal antibody. […] Saturation of binding occurred at 2 μg/ml for each CTGF isoform and 4 μg/ml for vitronectin.
In order to identify the αvβ3 binding site in CTGF4, eighteen synthetic peptides spanning the entire C-terminal region of CTGF4 (residues 246-349 of SEQ ID NO: 1) were synthesized and used as potential blocking agents in the solid phase binding studies as described in Example 3. […] Integrin αvβ3 was detected by successive incubation with anti-human αvβ3 monoclonal antibody diluted in blocking solution (1:1000), and followed by HRP-conjugated goat anti-mouse IgG (1:4000). The color reaction was developed using the horseradish peroxidase ELISA reagents (Chemicon), and the absorbance at 450 nm was measured using Bio Assay Reader (HTS700).
The ability of mutant CTGF4 to bind to integrin αvβ3 was assessed by solid phase ELISA which measured the ability of purified integrin αvβ3 to bind to the CTGF4 mutants.

3T3 cells = assay: 3T3 cell adhesion to CTGF-coated non-tissue culture plastic; type: cell-based; conditions: HPLC-purified E. coli-derived protein
Method: as §1
(§2) To confirm the functionality of residues 247-349 of SEQ ID NO: 1 (containing module 4 alone; denoted as CTGF4), this region of CTGF was produced as a maltose binding protein (MBP) fusion protein in E. coli as described in Ball et al., J Endocrinol; 176: R1-R7, 2003. […] HPLC-purified 10 kDa CTGF promoted 3T3 cell adhesion in a dose-dependent manner, with maximal binding at 8 ng/well. […] Also, the binding of all cell types to 10 kDa CTGF was reduced by EDTA treatment, though this effect was relatively modest in 3T3 cells. Thus, E coli-derived CTGF isoforms comprising essentially module 4 are intrinsically functional in the absence of the other constituent modules of CTGF.

[2] = test system: vascular endothelial cells, intestinal epithelial, and hepatic stellate cells; assay: Adhesion of cell types to 10 kDa CTGF; type: cell-based; conditions: vascular endothelial, intestinal epithelial, hepatic stellate cells
Method: as §2

- binding to integrin α5β1 (integrin α5β1): bound; also recorded: bound strongly
- binding to αvβ3 (integrin αvβ3): strongest affinity
B1: CTGF4: C-terminal CTGF fragment comprising essentially module 4 alone, residues 247-349 (protein)
chain: EENIKKGKKCIRTPKISKPIKFELSGCTSMKTYRAKFCGVCTDGRCCTPHRTTTLPVEFKCPDGEVMKKNMMFIKTCACHYNCPGDNDIFESLYYRKMYGDMA
- fibrogenic response (neonatal mice): most robust response
- PSC migration (PSCs): induced PSC migration
- PSC adhesion supported by the coated substance [1]: significantly promoted
- 3T3 cell adhesion, maximal binding at (3T3 cells): 8 ng/well
- adhesion of several additional cell types [2]: promoted the dose-dependent adhesion
